According to the supplement of paper PMC9112550, “Optimization of the antimicrobial peptide Bac7 by deep mutational scanning” (BMC Biology, 2022):

System: Escherichia coli TOP10
Assay: shrunken log2 fold change of peptide-encoding DNA abundance (4.5 h post-induction vs induction); higher = less antimicrobial activity (less host growth inhibition)
Details: time post-induction: 4.5 h; library: site-saturation at positions 5, 18, 19, 20
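Also: peptides expressed intracellularly from a pBAD plasmid library in pooled LB shake-flask culture, induced with 0.3% L-arabinose, DNA abundance read by NGS, three biological replicates, DESeq2 with apeglm shrinkage.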

| Sequence | shrunken log2 fold change |
| --- | --- |
| RRIRIRPPRLPRPRPRPCSEPRP | -0.0312 |
| RRIRIRPPRLPRPRPRPCTDPRP | -0.143 |
| RRIRIRPPRLPRPRPRPCTSPRP | -0.438 |
| RRIRIRPPRLPRPRPRPCTYPRP | -0.0592 |
| RRIRIRPPRLPRPRPRPCVQPRP | 1.47 |
| RRIRIRPPRLPRPRPRPCVSPRP | -0.012 |
| RRIRIRPPRLPRPRPRPCWEPRP | -0.0815 |
| RRIRIRPPRLPRPRPRPCWHPRP | -0.428 |
| RRIRIRPPRLPRPRPRPCWQPRP | -0.211 |
| RRIRIRPPRLPRPRPRPCYKPRP | -0.049 |
| RRIRIRPPRLPRPRPRPCYTPRP | -0.128 |
| RRIRIRPPRLPRPRPRPDAMPRP | -0.112 |
| RRIRIRPPRLPRPRPRPDCHPRP | -0.154 |
| RRIRIRPPRLPRPRPRPDFRPRP | -0.371 |
| RRIRIRPPRLPRPRPRPDHLPRP | -0.846 |
| RRIRIRPPRLPRPRPRPDHQPRP | -0.0128 |
| RRIRIRPPRLPRPRPRPDHSPRP | -0.152 |
| RRIRIRPPRLPRPRPRPDIHPRP | -0.587 |
| RRIRIRPPRLPRPRPRPDINPRP | -0.0484 |
| RRIRIRPPRLPRPRPRPDLGPRP | -0.0274 |
| RRIRIRPPRLPRPRPRPDNMPRP | -0.25 |
| RRIRIRPPRLPRPRPRPDPYPRP | -0.555 |
| RRIRIRPPRLPRPRPRPDQQPRP | 0.062 |
| RRIRIRPPRLPRPRPRPDSRPRP | -0.0316 |
| RRIRIRPPRLPRPRPRPDWDPRP | -0.318 |

| Sequence | shrunken log2 fold change |
| --- | --- |
| RRIRIRPPRLPRPRPRPDYEPRP | -0.0916 |
| RRIRIRPPRLPRPRPRPEAIPRP | -0.0271 |
| RRIRIRPPRLPRPRPRPEASPRP | 0.144 |
| RRIRIRPPRLPRPRPRPEAWPRP | 0.033 |
| RRIRIRPPRLPRPRPRPECRPRP | 0.0513 |
| RRIRIRPPRLPRPRPRPECVPRP | 0.0147 |
| RRIRIRPPRLPRPRPRPEDHPRP | -0.185 |
| RRIRIRPPRLPRPRPRPEDTPRP | 0.0265 |
| RRIRIRPPRLPRPRPRPEDVPRP | -0.0939 |
| RRIRIRPPRLPRPRPRPEESPRP | 0.124 |
| RRIRIRPPRLPRPRPRPEEVPRP | -0.00172 |
| RRIRIRPPRLPRPRPRPEFKPRP | 0.387 |
| RRIRIRPPRLPRPRPRPEHAPRP | 0.00666 |
| RRIRIRPPRLPRPRPRPEHGPRP | -0.0885 |
| RRIRIRPPRLPRPRPRPEHVPRP | -0.0143 |
| RRIRIRPPRLPRPRPRPEIKPRP | -0.14 |
| RRIRIRPPRLPRPRPRPEILPRP | -0.0902 |
| RRIRIRPPRLPRPRPRPEIPPRP | -0.0249 |
| RRIRIRPPRLPRPRPRPELQPRP | -0.0107 |
| RRIRIRPPRLPRPRPRPEMVPRP | -0.14 |
| RRIRIRPPRLPRPRPRPEPEPRP | 0.421 |
| RRIRIRPPRLPRPRPRPEPSPRP | 3.27 |
| RRIRIRPPRLPRPRPRPEPWPRP | 0.39 |
| RRIRIRPPRLPRPRPRPEQDPRP | 0.0197 |
| RRIRIRPPRLPRPRPRPERWPRP | 1.8 |

| Sequence | shrunken log2 fold change |
| --- | --- |
| RRIRIRPPRLPRPRPRPESCPRP | -0.0796 |
| RRIRIRPPRLPRPRPRPESNPRP | 0.0344 |
| RRIRIRPPRLPRPRPRPESPPRP | -0.135 |
| RRIRIRPPRLPRPRPRPESSPRP | -0.0745 |
| RRIRIRPPRLPRPRPRPESTPRP | -0.325 |
| RRIRIRPPRLPRPRPRPETQPRP | 0.0575 |
| RRIRIRPPRLPRPRPRPEVHPRP | -0.102 |
| RRIRIRPPRLPRPRPRPEYCPRP | -0.125 |
| RRIRIRPPRLPRPRPRPEYMPRP | -1.14 |
| RRIRIRPPRLPRPRPRPFALPRP | -0.178 |
| RRIRIRPPRLPRPRPRPFDLPRP | -0.348 |
| RRIRIRPPRLPRPRPRPFDNPRP | -1.1 |
| RRIRIRPPRLPRPRPRPFFWPRP | 0.364 |
| RRIRIRPPRLPRPRPRPFGEPRP | -0.202 |
| RRIRIRPPRLPRPRPRPFGRPRP | -0.0138 |
| RRIRIRPPRLPRPRPRPFHGPRP | -0.146 |
| RRIRIRPPRLPRPRPRPFHLPRP | -0.0356 |
| RRIRIRPPRLPRPRPRPFICPRP | -0.304 |
| RRIRIRPPRLPRPRPRPFIMPRP | -0.187 |
| RRIRIRPPRLPRPRPRPFLAPRP | -0.493 |
| RRIRIRPPRLPRPRPRPFLQPRP | -0.248 |
| RRIRIRPPRLPRPRPRPFMRPRP | 0.0516 |
| RRIRIRPPRLPRPRPRPFNRPRP | 0.0284 |
| RRIRIRPPRLPRPRPRPFPDPRP | -0.131 |
| RRIRIRPPRLPRPRPRPFPNPRP | -0.939 |
